Data from the RNAGym collection of RNA variant scans (doi:10.1093/nar/gkz1192).

B1: CPEB3 Ribozyme (parent)
chain: UAACAGGGGGCCACAGCAGAAGCGUUCACGUCGCAGCCCCUGUCAGAUUCUGGUGAAUCUGCGAAUUCUGCUGUAUAUCUC

Variants of: B1
Test: self-cleavage, relative activity (ratio to wild type); higher = more cleavage; in vitro, sequencing
Method in brief: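 Libraries of CPEB3 self-cleaving ribozyme mutants came from rounds of error-prone PCR and carried barcodes, which DNA sequencing matched to variants. In vitro transcription used T7 RNA polymerase at 37°C for 5 hours, with a further 15 min in DNase I before EDTA stopped the reaction; the ribozymes cleaved during both steps. The RNA was reverse transcribed with template switching and sequenced on Illumina. Relative activity is the cleaved/total read fraction of a variant divided by that of the unmutated ribozyme, averaged over three batches with at least 5 reads.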

Variant | self-cleavage
A13G U67A | 0.43
A13G U67C | 0.25
A13G A56G | 0.73
A13G A56U | 0.42
C12U U67A | 0.86
C12U U67G | 0.95
C12U U67C | 0.3
C12U C39U | 1.26
A13C C79U | 1.11
C12U C34A | 0.68
A13G U72C | 0.8
A13G U72A | 0.54
A13G U72G | 0.46
C12U U41C | 1.31
C12U U41A | 0.24
C12U U41G | 0.28
A13C C17U | 0.53
A13G U49A | 0.41
A13G U49C | 0.25
A13C U49C | 0.42
A13G U43G | 0.27
A13G U43C | 0.49
A13G U43A | 0.93
A13G G53A | 0.92

Variant | self-cleavage
A13G G53U | 1.15
C12U G24C | 0.16
A13G U31C | 0.45
A13G U31A | 0.5
A13G U31G | 0.51
A13C A75U | 0.99
A13C A75G | 1.12
A13C U69C | 0.52
A13C U69A | 0.31
C12U U60G | 0.46
C12U U60C | 0.95
C12U U60A | 1.04
A13C | 0.96
A13G | 0.94
A13U | 1.17
A13C U41C | 1.08
A13G G63C | 0.81
A13G G63A | 0.68
A13U A18U | 0.38
A13U A18C | 0.42
A13U A18G | 0.87
A13G A35G | 0.92
A13G A35C | 0.56
A13G A35U | 0.48

Variant | self-cleavage
A13C G73C | 0.48
A13G U74C | 0.72
A13G U74A | 1.28
A13G U74G | 1.37
A13G U41C | 0.79
A13G U41A | 0.27
A13G U41G | 0.37
C12U U25C | 0.38
C12U U25G | 0.7
A13G U51G | 0.84
A13G U51A | 0.91
A13G U51C | 0.85
A13C U51G | 0.88
A13C U51A | 1.01
A13C U51C | 1.11
A13C U66C | 0.33
A13G C50U | 0.91
A13G C50G | 0.81
A13G C50A | 0.76
A13G U76A | 0.99
A13G U76G | 1.08
A13G U76C | 0.94
A13G C38A | 0.13
A13G C38U | 0.83

Variant | self-cleavage
A13G C38G | 0.28
A13U C17U | 0.92
A13U C17G | 0.48
A13C U43C | 0.62
A13G C81A | 1.23
A13C U74C | 1.18
A13C A57G | 1.04
A13C A57U | 0.28
A13C A18U | 0.25
A13C A18G | 0.67
A13G U80C | 1.03
A13G U80A | 1.07
A13G U80G | 0.75
C12U U80A | 1.26
C12U U80C | 1.23
C12U C79A | 1.19
A13C A15U | 1
A13C A15G | 1.07
A13C C40A | 0.26
A13U A47G | 1.01
A13U A47C | 0.76
A13U A47U | 0.92
A13C A77G | 1.12
C12U U66C | 0.71

Variant | self-cleavage
A13U A64C | 0.27
A13U A64G | 1.09
A13U A64U | 0.47
A13U A45C | 0.38
A13U A45G | 1.1
A13U A45U | 0.69
A13G C34U | 0.32
A13G C34G | 0.17
C12U C44A | 0.94
A13G C68U | 0.66
A13C U72A | 0.24
A13C U72C | 0.83
C12U G36C | 0.17
C12U U78A | 1.28
C12U U78C | 1.23
A13C U80A | 0.92
A13C U80C | 1.14
A13G G46A | 0.21
C12U G53A | 1.18
A13G C29U | 0.33
A13G C29G | 0.11
A13G C29A | 0.3
A13C A35U | 0.42
A13C A35G | 1.22

Variant | self-cleavage
A13G U66C | 0.35
A13G U66A | 0.45
A13G U66G | 0.31
A13U C23G | 0.17
A13U C23A | 0.33
C12U U72C | 1.24
C12U U72A | 1.1
A13G A20G | 0.6
A13G A20U | 0.28
A13G A20C | 0.27
A13C U67C | 0.19
A13G C23U | 0.36
A13G C23G | 0.46
A13U A57U | 1.04
A13U A57G | 1.07
A13U A57C | 0.7
A13C A56U | 0.48
A13C A56G | 0.65
C12U U74A | 1.3
C12U U74G | 1.25
A13G U25C | 0.36
A13G U25A | 0.29
A13U A20U | 0.54
A13U A20G | 0.93

Variant | self-cleavage
A13C U76C | 0.75
A13C U76A | 1.18
A13C U60G | 0.57
A13C U60A | 0.52
A13C U60C | 0.51
A13C U54C | 1.09
A13C U54G | 0.71
A13G C32U | 0.18
A13G C32A | 0.16
A13C G70A | 0.44
A13G U78C | 0.94
A13G U78A | 1.01
A13G A65U | 0.31
A13G A65C | 0.56
A13G A65G | 0.41
A13C U31C | 0.66
A13C U31A | 0.38
A13G A15U | 0.43
A13G A15C | 0.81
A13G A15G | 0.35
A13G G30A | 0.44
A13G G30C | 0.16
A13G G30U | 0.18
